Reference: article PMC5469495, “MicroRNA319-regulated TCPs interact with FBHs and PFT1 to activate CO transcription and control flowering time in Arabidopsis” (PLoS Genetics, 2017)

T1: PFT1-CFP (Arabidopsis thaliana, UniProt Q7XYY2 1-836)
T1 construct: PFT1 (MED25), Arabidopsis thaliana, At1g25540; FRET donor; also called PHYTOCHROME AND FLOWERING TIME 1; MED25; source: Arabidopsis protoplast cells, co-expressed
T1 sequence (looked up): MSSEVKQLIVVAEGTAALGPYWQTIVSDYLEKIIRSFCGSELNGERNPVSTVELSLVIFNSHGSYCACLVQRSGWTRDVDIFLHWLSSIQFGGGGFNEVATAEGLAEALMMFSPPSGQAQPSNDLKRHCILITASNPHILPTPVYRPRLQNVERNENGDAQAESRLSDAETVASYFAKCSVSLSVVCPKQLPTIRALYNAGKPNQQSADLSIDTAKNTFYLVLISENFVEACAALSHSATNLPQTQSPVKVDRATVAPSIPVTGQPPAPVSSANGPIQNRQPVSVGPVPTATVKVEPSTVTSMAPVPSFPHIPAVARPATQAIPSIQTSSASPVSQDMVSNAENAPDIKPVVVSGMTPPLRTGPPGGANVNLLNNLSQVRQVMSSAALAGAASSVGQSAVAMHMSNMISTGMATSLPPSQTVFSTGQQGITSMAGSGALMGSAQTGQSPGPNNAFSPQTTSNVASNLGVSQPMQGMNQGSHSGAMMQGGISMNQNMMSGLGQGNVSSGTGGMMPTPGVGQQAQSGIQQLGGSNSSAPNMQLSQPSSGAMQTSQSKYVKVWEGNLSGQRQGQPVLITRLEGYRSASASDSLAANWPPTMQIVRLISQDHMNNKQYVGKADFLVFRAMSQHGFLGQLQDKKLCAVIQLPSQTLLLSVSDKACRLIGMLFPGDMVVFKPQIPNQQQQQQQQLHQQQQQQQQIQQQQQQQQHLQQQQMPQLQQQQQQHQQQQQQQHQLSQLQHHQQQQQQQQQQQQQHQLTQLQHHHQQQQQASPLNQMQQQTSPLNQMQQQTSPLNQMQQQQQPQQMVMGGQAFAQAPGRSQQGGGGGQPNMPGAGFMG

T2: PFT1-YFP (Arabidopsis thaliana, UniProt Q7XYY2 1-836)
T2 construct: PFT1 (MED25), Arabidopsis thaliana, At1g25540; FRET acceptor; also called PHYTOCHROME AND FLOWERING TIME 1; MED25; source: Arabidopsis protoplast cells, co-expressed
T2 sequence (looked up): T1 sequence (looked up)

B1: FBH1-YFP (natural protein, Arabidopsis thaliana, UniProt Q9C8P8 1-259, looked up)
chain: MQSTHISGGSSGGGGGGGGEVSRSGLSRIRSAPATWIETLLEEDEEEGLKPNLCLTELLTGNNNSGGVITSRDDSFEFLSSVEQGLYNHHQGGGFHRQNSSPADFLSGSGSGTDGYFSNFGIPANYDYLSTNVDISPTKRSRDMETQFSSQLKEEQMSGGISGMMDMNMDKIFEDSVPCRVRAKRGCATHPRSIAERVRRTRISDRIRRLQELVPNMDKQTNTADMLEEAVEYVKALQSQIQELTEQQKRCKCKPKEEQ
notes: FBH1, Arabidopsis thaliana, At1g35460; FRET acceptor; also called FLOWERING BHLH 1; source: Arabidopsis protoplast cells, co-expressed
B2: TCP4-CFP (natural protein, Arabidopsis thaliana, UniProt Q8LPR5 1-420, looked up)
chain: MSDDQFHHPPPPSSMRHRSTSDAADGGCGEIVEVQGGHIVRSTGRKDRHSKVCTAKGPRDRRVRLSAHTAIQFYDVQDRLGFDRPSKAVDWLIKKAKTSIDELAELPPWNPADAIRLAAANAKPRRTTAKTQISPSPPPPQQQQQQQQLQFGVGFNGGGAEHPSNNESSFLPPSMDSDSIADTIKSFFPVIGSSTEAPSNHNLMHNYHHQHPPDLLSRTNSQNQDLRLSLQSFPDGPPSLLHHQHHHHTSASASEPTLFYGQSNPLGFDTSSWEQQSSEFGRIQRLVAWNSGGGGGATDTGNGGGFLFAPPTPSTTSFQPVLGQSQQLYSQRGPLQSSYSPMIRAWFDPHHHHQSISTDDLNHHHHLPPPVHQSAIPGIGFASGEFSSGFRIPARFQGQEEEQHDGLTHKPSSASSISRH
notes: TCP4, Arabidopsis thaliana, At3g15030; FRET donor; source: Arabidopsis protoplast cells, co-expressed

Key:
Experiment in all cases: FRET or BRET; FLIM-FRET in Arabidopsis protoplast cells, 24 h after transformation; CFP fusion as donor, YFP fusion as acceptor; CFP lifetime in nuclei; negative controls TCP4-CFP/YFP tauD 2.59 ± 0.39 ns and PFT1-CFP/YFP tauD 2.80 ± 0.28 ns
Settings in all cases: partners not purified
[1] = target: T1, PFT1-CFP
[2] = target: B1
[3] = target: T2, PFT1-YFP

Row | Binder | average CFP fluorescence lifetime (tauDA) [1] [ns] | average CFP fluorescence lifetime (tauDA) [2] [ns] | average CFP fluorescence lifetime (tauDA) [3] [ns]
1 | B1 | 0.95 | – | –
2 | B2 | – | 0.99 | 0.9
